This passage reports binding results from article PMC6426608.

Assay in all cases: EMSA
Holding throughout (settings): EMSA: 40 ng probe in 20 ul of 10 mM Tris-HCl pH 7.4, 50 mM KCl, 5 mM MgCl2, 10% glycerol; room temperature 20 min; 6% PAGE, DNA dye

In series [1] the test system is T1, RhpR (Pseudomonas savastanoi pv. phaseolicola 1448A), ORF:976030cf.
T1 sequence: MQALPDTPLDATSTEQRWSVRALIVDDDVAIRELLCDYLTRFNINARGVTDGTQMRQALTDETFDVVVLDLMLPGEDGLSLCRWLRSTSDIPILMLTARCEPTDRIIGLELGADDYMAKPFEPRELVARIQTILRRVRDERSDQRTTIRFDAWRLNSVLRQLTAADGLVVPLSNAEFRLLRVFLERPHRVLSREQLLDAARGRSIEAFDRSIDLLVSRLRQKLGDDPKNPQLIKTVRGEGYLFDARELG

Series [2] has as its system T2, RhpR D70E D70E (Pseudomonas savastanoi pv. phaseolicola 1448A), ORF:976030cf.
T2 sequence: T1 sequence with D70E

Series [3] has as its system T3, RhpR D70A D70A (Pseudomonas savastanoi pv. phaseolicola 1448A), ORF:976030cf.
T3 sequence: T1 sequence with D70A

Substitutions are numbered along the chain they refer to.

“TTCTCGAGTGAAATATCGACCTGAGGAAATTGCCCCTTTGATAATAGGACTCGCATGTATAATACCGGCCAAAACCGGACCAGCCGCCATTAACTTCTCTTCATGTAACGGCCATATCACCCCCGACTTGAACCGCCTTTTACTGCGTATATTTCGCGACGCTCCAGCACTGGAAACGCCCGGGATCCAA (double strand) [ccmA-ΔIR promoter]”: in series [1], the binding result is on record as “no binding”.

Take “TTCTCGAGTGAAATATCGACCTGAGGAAATTGCCCCTTTGATAATAGGACTCGCATGTATAATACCGGCCAAAACCGGACCAGCCGCCATTAACTTCTCTTCATGTAACGGCCATATCACCCCCGACTTGAACCGCCTTTTACTGCGTATGTGTCTGTTTTGGTACATTTCGCGACGCTCCAGCACTGGAAACGCCCGGGATCCAA (double strand) [ccmA promoter]”: the binding entry in series [1] is “binds”.

As to “TTGGATCCAACACCCTATCCACTGAAGGTCTTGGCGGGCAAAAAACAAGCCGAGGATTATACCCGAGCTATGACCCTCGAGAA (double strand) [rpoD promoter]”, in series [1], the binding result was “binds”.

In the case of “TTGGATCCGACGGACCCTCGTGGGGTGATAGCCCAAGCATCCGCCGTGTGCGAGGTACAACCATTGACCTGGCGCAATGAAGCAGCCTGATAGCAGACCGTTGGTCGAAGACTCTTCGGTCTACGTGTGCAGGGTGGCTGTTCTCGAGAA (double strand) [adhB-ΔIR promoter]”, the binding result in series [1] is “no binding”.

Consider “TTGGATCCGACGGACCCTCGTGGGTAGCTCGGATGCTTGGGTGATAGCCCAAGCATCCGCCGTGTGCGAGGTACAACCATTGACCTGGCGCAATGAAGCAGCCTGATAGCAGACCGTTGGTCGAAGACTCTTCGGTCTACGTGTGCAGGGTGGCTGTTCTCGAGAA (double strand) [adhB promoter]”, for which the binding entry in series [1] is listed as “binds”.

As for “TTGGATCCGGAAACACCAGATGCATGAGCCGACGACGGTCATCCGTAAAAACCATGACCAAAGGTAACAAGTGTGCTGCTGCATTGTTGCAAAGTTCATACCTTTTTGGCAGACCCTTTGCCTGTCAGATGACATCCATGTGACGTGGGGCACTACACGGCTGCCAGACGGGTCAGATCCAGGTGTGTCGCGAGACCGCCAAGGTGAATGAGCAGGGCTCGGCTATGCTTGCTCGCGGCGTTACATATTCTTCCCCCACTGAACAGGTGACAGTCCTCGAGAA (double strand) [PSPPH_2590 promoter]”, the binding entry in series [2] is “binds”; in series [3], “binds more weakly”.

For the sequence “TTGGATCCGGAAACACCAGATGCATGAGCCGACGACGGTCATCCGTAAAAACCATGACCAAAGTGCATTGTTGCAAAGTTCATACCTTTTTGGCAGACCCTTTGCCTGTCAGATGACATCCATGTGACGTGGGGCACTACACGGCTGCCAGACGGGTCAGATCCAGGTGTGTCGCGAGACCGCCAAGGTGAATGAGCAGGGCTCGGCTATGCTTGCTCGCGGCGTTACATATTCTTCCCCCACTGAACAGGTGACAGTCCTCGAGAA (double strand) [PSPPH_2590-p-ΔIR]”, the binding result in series [2] was “no binding”.
